# In paper PMC9608704:
# Several values for one entry are separate records, joined by “and”; a condition that tells them apart may be missing. Equal entries are not always repeated.
# Molecular target: HLA-B*2704 heavy chain (human)
# Experiment: non-reducing SDS-PAGE with Western blot; cell surface proteins of C1R-B*2704 or C1R-B*2704 C67S cells biotinylated, extracted in the presence of iodoacetamide, precipitated by avidin-agarose beads, separated by non-reducing SDS-PAGE and blotted with the BH2 antibody; disulfide-linked oligomers judged by mobility
substance,measurement,value
HLA-B*2704 heavy chain (natural protein),stoichiometry N,2 and 4
